Experimental findings from patent publication US11110154 are described below.

Common to all, as to assay: cell_activity
Data set [1] concerns ZFP 33074-KOX (ZFP-TF repressor) (synthetic construct). The conditions noted are these: lentiviral, CAG17/48 neurons; apoptosis ~50% to 20%; AAV in Q175 mice reduced mHtt aggregates (P<0.001); indirect evidence of binding; scale: % increase of intracellular ATP in HD neurons.
The subject of data set [2] is ZFP 30640 (ZFP-TF repressor) (synthetic construct). The conditions noted are these: AAV, Q175 mouse striatum (~179 CAG), injected at 2 months; indirect evidence of binding.
Data set [3] deals with ZFP 30645 (ZFP-TF repressor) (synthetic construct). To be noted: AAV, Q175 mouse striatum (~179 CAG), injected at 2 months; indirect evidence of binding.

In data set [1], “AGCAGCAGCAGCAGCAGCAGCAGCAGCA (double strand) [Htt CAG repeat, 33074 target]” registered an activity of 60.

Regarding “CAGCAGCAGCAGCAGCAGCAGCAGCAGC (double strand) [Htt CAG repeat, 30640 target]”, the activity (% reduction of nuclear Htt aggregates) in data set [2] was over 90.

“CAGCAGCAGCAGCAGCAGCAGCAGCAGC (double strand) [Htt CAG repeat, 30645 target]”: in data set [3], the activity (% reduction of nuclear Htt aggregates) is over 90.
